Experimental data: PMC3585325

Biological target: recombinant human IGF2R extracellular domains 1–15, biotinylated CD4 (domains 3 and 4) fusion protein (human) (UniProt P11717)
Assay: SPR; BIAcore T200; 1800 RU biotinylated IGF2R fusion protein immobilised on a streptavidin-loaded CM5 chip; IGF2 256 to 0.125 nM injected for 200 s at 40 µL/min, 25°C, HBS-EP buffer; kinetic fit to a 1:1 binding model and steady state analysis

Row | Kd [nM] | Substance
1 | 1 to 4 | recombinant human IGF2 (ligand)
2 | 3 to 6 | recombinant mouse IGF2 (ligand)
